The target of the assay is PitA (Haloferax volcanii) (Haloferax volcanii (endogenous in strain H26)). As to the kind of experiment: SEC; Sephacryl S-300 gel filtration of purified PitA against standard proteins (thyroglobulin, ferritin, KatG, BSA, cytochrome c554, cytochrome c). (In general: SEC sorts molecules by how far they enter the pores of the column.)

The substance PitA (Haloferax volcanii) (enzyme) gave a stoichiometry N (molecules of the subunit) of over 10.

Values taken from publication PMC5746218.
